Where two headings read alike, the source gives them in different places. Numbered stars: 1 amine (or outer) side, 2 acyl side, 3 side chain; on linkers, the order of the positions; unused ones are H or OH. Bridge positions count the residues as written; N and C are the ends. Square brackets hold non-standard residues; d marks the D form. Ends that are not written are not given here. X2 = (3R)‑3‑amino‑1‑carboxymethyl‑valerolactam, O=C1[C@H](N[*:1])CCCN1CC(=O)[*:2]; X1 = 3‑amino‑2‑oxo‑1‑piperidine‑acetic acid, O=C1C(N[*:1])CCCN1CC(=O)[*:2]; NMeL = CN[C@@H](CC(C)C)C(=O)O; Pen = CC(C)(S)[C@H](N)C(=O)O; NMeA = CN[C@@H](C)C(=O)O; Sar = CNCC(=O)O

Experimental findings from patent US20110059889A1 (SYNTONIX PHARMACEUTICALS, published 2011) are described below.

Assay [1] has as its target T1, soluble human FcRn (shFcRn) (human, UniProt P55899 24-297; P61769 21-119).
T1 construct: Biotinylated for the ELISA, amine-coupled to a CM5 chip for SPR; also called biotinylated shFcRn
The assay is described as follows: SPR pH 6.
Protocol: (§1) The following steps were performed to cross-link soluble human or cynomolgus FcRn to the dextran surface of a CM5 sensor chip (Biacore AB, Uppsala, Sweden) by an amine coupling reaction involving 1-ethyl-(3-dimethylaminopropyl)-carbodiimide hydrochloride (EDC) (Biacore AB, Uppsala, Sweden) and N-hydroxysuccinimide (NHS) (Biacore AB, Uppsala, Sweden) as recommended by Biacore (BIAapplications Handbook, version AB, section 4.2, Biacore AB, Uppsala, Sweden). […] Residual sites on the FcRn flow cell were blocked with 1 M ethanolamine hydrochloride pH 8.5 (Biacore AB, Uppsala, Sweden). A control flow cell was blocked with ethanolamine for reference subtraction. For analysis of the monomeric peptides, FcRn was coated to a final density of 4000-5000 response units (RU). For analysis of the peptide dimers, FcRn was coated to a density of 2000-2500 RU. All SPR measurements were performed using a BIACORE 3000 Instrument (Biacore AB Uppsala, Sweden). For measurements done at either pH 6 or pH 7.4, experiments were performed in 50 mM phosphate, 100 mM sodium chloride, 0.01% surfactant P20 (Biacore AB, Uppsala, Sweden).
(§2) Ten, 2-fold dilutions of the peptide were injected over the FcRn-CM5 chip at a rate of 20 μl/min for 2 min. The peptide was dissociated from the chip for 2.5 minutes with buffer. Any remaining peptide was removed from the chip with a 30 second injection of HBS-P buffer (Biacore AB, Uppsala, Sweden) at a rate of 30 μl/min. Sensorgrams were generated and analyzed using BiaEval software version 3.1 (Biacore AB, Uppsala, Sweden). The equilibrium RU observed for each injection was plotted against concentration. The equilibrium KD values were derived by analysis of the plots using the steady state affinity model included in the BiaEval software.

The target of assay [2] is T1, soluble human FcRn (shFcRn). The assay is described as follows: IgG competition ELISA.
Protocol: (§3) The wells were coated with 100 μl/well of 1 μg/ml biotinylated-shFcRn in Buffer A. The plate was sealed and incubated at 37° C. for 2 hours. Afterwards, the plate was washed with 200 μl/well of Buffer B (Buffer B: 100 mM MES pH 6, 150 mM NaCl, 0.5% BSA IgG-free (Jackson ImmunoResearch, West Grove, Pa.), 0.05% Tween-20). […] To allow for mixing, the plate was rocked for 2 minutes, sealed and incubated at 37° C. for 2 hours. […] The plate was covered, incubated for 30 minutes at room temperature and washed 4 times with 200 μl/well of ice-cold buffer B. SureBlue TMB substrate solution (100 μl/well, KPL, Gaithersburg, Md.) was added and the plate was allowed to incubate at room temperature until color developed, which took 5 to 10 minutes. Once color developed, 100 μl/well of TMB stop solution (KPL, Gaithersburg, Md.) was added and the absorbance was measured at 450 nm. The data was plotted as absorbance vs. peptide concentration to derive the inhibitory concentration 50% (IC₅₀) values.
For assay [3] the target is unchanged. The assay is described as follows: IgG competition ELISA. This is another data set of the same source. In general terms: An ELISA detects its analyte on a solid surface through an enzyme-linked reagent.
Protocol: as §3
The target is the same in assay [4]. The assay is described as follows: IgG competition ELISA. This is another data set of the same source.
Protocol: as §3
Assay [5] shares this target. The assay can be described thus: SPR pH 6. This is another data set of the same source.
Protocol: as §1, §2
Assay [6] shares this target. The assay can be described thus: SPR pH 6. The source holds these as a separate data set.
Protocol: as §1, §2
Assay [7] shares this target. The assay is described as follows: SPR pH 6. The source holds these as a separate data set.
Protocol: as §1, §2
The target is the same in assay [8]. The assay is described as follows: IgG competition ELISA. The source holds these as a separate data set.
Protocol: as §3
Assay [9] shares this target. The assay can be described thus: IgG competition ELISA. The source holds these as a separate data set.
Protocol: as §3
Assay [10] shares this target. The assay is described as follows: IgG competition ELISA. The source holds these as a separate data set.
Protocol: as §3

T1 sequence (P55899 24-297 limits assumed, chain 1 of 2): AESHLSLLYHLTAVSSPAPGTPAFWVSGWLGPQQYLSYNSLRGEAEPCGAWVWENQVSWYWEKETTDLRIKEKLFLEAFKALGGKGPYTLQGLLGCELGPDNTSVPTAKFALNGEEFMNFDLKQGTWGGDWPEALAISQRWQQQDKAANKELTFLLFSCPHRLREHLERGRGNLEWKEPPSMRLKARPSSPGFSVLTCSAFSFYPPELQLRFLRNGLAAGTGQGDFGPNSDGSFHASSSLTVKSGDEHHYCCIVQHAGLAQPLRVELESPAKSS
T1 sequence (P61769 21-119 limits assumed, chain 2 of 2): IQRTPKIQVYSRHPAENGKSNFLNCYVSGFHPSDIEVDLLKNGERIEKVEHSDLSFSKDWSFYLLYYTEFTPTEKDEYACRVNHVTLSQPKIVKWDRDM

B1: Peptide No. 205 (peptide)
peptide: RFCTGHFXLYPC
modifications: not fully specified; Pen 3; X 8 = 3(S)-2-amino-2-oxo-1-azepine acetic acid (so in the source) in place of Gly-Gly; disulfide 3-12; C-terminal amide
One may read the Kd as a measure of binding affinity in units of concentration. In general, IC50 refers to the concentration needed to halve the response being measured. High values mean lower potency, low ones higher potency. B1 yielded a dissociation constant Kd in assay [1] of 103 nM. In [2], this molecule yielded an IC50 of 640 nM.

B2: Peptide No. 228 (peptide)
peptide: RF[Pen][NMeA]GHF[X2][NMeL]YPC-NH2
modifications: disulfide 3-12; N-terminus assumed
SMILES: CC(C)C[C@H]1C(=O)N[C@@H](Cc2ccc(O)cc2)C(=O)N2CCC[C@H]2C(=O)N[C@H](C(N)=O)CSSC(C)(C)[C@H](NC(=O)[C@H](Cc2ccccc2)NC(=O)[C@@H](N)CCCNC(=N)N)C(=O)N(C)[C@@H](C)C(=O)NCC(=O)N[C@@H](Cc2c[nH]cn2)C(=O)N[C@@H](Cc2ccccc2)C(=O)N[C@@H]2CCCN(CC(=O)N1C)C2=O
In assay [1], B2 registered a Kd of 145 nM. Besides, the IC50 in assay [2] came to 1100 nM.

B3: Peptide No. 112 (peptide)
peptide: QRF[Pen]TGHFG[Sar]LYPCNGP-NH2
modifications: disulfide 4-14; N-terminus assumed
SMILES: CC(C)C[C@@H]1NC(=O)CN(C)C(=O)CNC(=O)[C@H](Cc2ccccc2)NC(=O)[C@H](Cc2c[nH]cn2)NC(=O)CNC(=O)[C@H]([C@@H](C)O)NC(=O)[C@@H](NC(=O)[C@H](Cc2ccccc2)NC(=O)[C@H](CCCNC(=N)N)NC(=O)[C@@H](N)CCC(N)=O)C(C)(C)SSC[C@@H](C(=O)N[C@@H](CC(N)=O)C(=O)NCC(=O)N2CCC[C@H]2C(N)=O)NC(=O)[C@@H]2CCCN2C(=O)[C@H](Cc2ccc(O)cc2)NC1=O
B3 came in with a half-maximal inhibitory concentration (IC50) in assay [3] of 900 nM. In turn, RF[Pen]TGHF[X1]LYPC-NH2 (disulfide 3-12) [Peptide No. 179] came in with a Kd in assay [1] of 670 nM. This molecule also yielded an IC50 in assay [2] of 7200 nM.

B4: Peptide No. 288 (peptide)
peptide: RF[Pen]TGHFG[Sar][NMeL]YPCGG
modifications: disulfide 3-13; also: dimer: C-termini joined through a branching Lys
notes: C-terminally linked dimer; drawing CHEM-US-00132
With B4, the half-maximal inhibitory concentration (IC50) in assay [4] is 16 nM.

B5: Peptide No. 235 (peptide)
peptide: RF[Pen]TGHFG[Sar][NMeL]YPC-NH2
modifications: disulfide 3-13; N-terminus assumed
SMILES: CC(C)C[C@H]1C(=O)N[C@@H](Cc2ccc(O)cc2)C(=O)N2CCC[C@H]2C(=O)N[C@H](C(N)=O)CSSC(C)(C)[C@H](NC(=O)[C@H](Cc2ccccc2)NC(=O)[C@@H](N)CCCNC(=N)N)C(=O)N[C@@H]([C@@H](C)O)C(=O)NCC(=O)N[C@@H](Cc2c[nH]cn2)C(=O)N[C@@H](Cc2ccccc2)C(=O)NCC(=O)N(C)CC(=O)N1C
For the molecule B5, the Kd in assay [5] and in assay [6] was 31 nM in each case.

B6: Peptide No. 237 (peptide)
peptide: RF[Pen]TGHFGGWYPC-NH2
modifications: disulfide 3-13; N-terminus assumed
SMILES: C[C@@H](O)[C@@H]1NC(=O)[C@@H](NC(=O)[C@H](Cc2ccccc2)NC(=O)[C@@H](N)CCCNC(=N)N)C(C)(C)SSC[C@@H](C(N)=O)NC(=O)[C@@H]2CCCN2C(=O)[C@H](Cc2ccc(O)cc2)NC(=O)[C@H](Cc2c[nH]c3ccccc23)NC(=O)CNC(=O)CNC(=O)[C@H](Cc2ccccc2)NC(=O)[C@H](Cc2c[nH]cn2)NC(=O)CNC1=O
Take B6: the Kd in assay [7] is 140 nM. The molecule further registered an IC50 in [8] of 2800 nM.

B7: Peptide No. 287 (peptide)
peptide: RF[Pen]TGHFG[Sar][NMeL]YPCG
modifications: disulfide 3-13; also: dimer: C-termini joined through a branching Lys
notes: C-terminally linked dimer; drawing CHEM-US-00131
In assay [4], B7 registered an IC50 of 20 nM.

B8: Peptide No. 279 (peptide)
peptide: RF[Pen]TGHFG[Sar][NMeL]YPC-NH2
modifications: disulfide 3-13; also: dimer: N-termini joined by Bis-dPEG6 diacid linker
notes: N-terminally linked dimer; drawing CHEM-US-00123
Turning to B8, the IC50 in assay [4] was 7 nM.

B9: Peptide No. 201 (peptide)
peptide: QRF[Pen]TGHFGGLYPCNGP-NH2
modifications: disulfide 4-14; also: N-terminally linked homodimer via ethylene glycol-bis(succinic acid) linker
notes: N-terminally linked dimer
As for B9, in [4], the IC50 is 26 nM. In assay [9], QRFCTGHFGGLXPCNGP (Pen 4; 2-pyridylAla 12 (printed 2-pvridylAla); disulfide 4-14; C-terminal amide) [Peptide No. 66] returned an IC50 above 125000 nM.

B10: Peptide No. 97 (peptide)
peptide: QRY[Pen]TGHFGGLYPCNGP-NH2
modifications: disulfide 4-14; N-terminus assumed
SMILES: CC(C)C[C@@H]1NC(=O)CNC(=O)CNC(=O)[C@H](Cc2ccccc2)NC(=O)[C@H](Cc2c[nH]cn2)NC(=O)CNC(=O)[C@H]([C@@H](C)O)NC(=O)[C@@H](NC(=O)[C@H](Cc2ccc(O)cc2)NC(=O)[C@H](CCCNC(=N)N)NC(=O)[C@@H](N)CCC(N)=O)C(C)(C)SSC[C@@H](C(=O)N[C@@H](CC(N)=O)C(=O)NCC(=O)N2CCC[C@H]2C(N)=O)NC(=O)[C@@H]2CCCN2C(=O)[C@H](Cc2ccc(O)cc2)NC1=O
Take B10: the half-maximal inhibitory concentration (IC50) in [10] came to 2400 nM.

B11: Peptide No. 115 (peptide)
peptide: QRF[Pen]TGHFGGFYPCNGP-NH2
modifications: disulfide 4-14; N-terminus assumed
SMILES: C[C@@H](O)[C@@H]1NC(=O)[C@@H](NC(=O)[C@H](Cc2ccccc2)NC(=O)[C@H](CCCNC(=N)N)NC(=O)[C@@H](N)CCC(N)=O)C(C)(C)SSC[C@@H](C(=O)N[C@@H](CC(N)=O)C(=O)NCC(=O)N2CCC[C@H]2C(N)=O)NC(=O)[C@@H]2CCCN2C(=O)[C@H](Cc2ccc(O)cc2)NC(=O)[C@H](Cc2ccccc2)NC(=O)CNC(=O)CNC(=O)[C@H](Cc2ccccc2)NC(=O)[C@H](Cc2c[nH]cn2)NC(=O)CNC1=O
In [7], B11 gave a Kd of 400 nM. Also, in [8], the IC50 came out at 4100 nM.

B12: Peptide No. 238 (peptide)
peptide: QRF[Pen]TGHFG[Sar]WYPCNGP-NH2
modifications: disulfide 4-14; N-terminus assumed
SMILES: C[C@@H](O)[C@@H]1NC(=O)[C@@H](NC(=O)[C@H](Cc2ccccc2)NC(=O)[C@H](CCCNC(=N)N)NC(=O)[C@@H](N)CCC(N)=O)C(C)(C)SSC[C@@H](C(=O)N[C@@H](CC(N)=O)C(=O)NCC(=O)N2CCC[C@H]2C(N)=O)NC(=O)[C@@H]2CCCN2C(=O)[C@H](Cc2ccc(O)cc2)NC(=O)[C@H](Cc2c[nH]c3ccccc23)NC(=O)CN(C)C(=O)CNC(=O)[C@H](Cc2ccccc2)NC(=O)[C@H](Cc2c[nH]cn2)NC(=O)CNC1=O
Molecule B12 displayed an IC50 in assay [8] of 1000 nM.

B13: Peptide No. 101 (peptide)
peptide: QRF[Pen]TGHFGGIYPCNGP-NH2
modifications: disulfide 4-14; N-terminus assumed
SMILES: CC[C@H](C)[C@@H]1NC(=O)CNC(=O)CNC(=O)[C@H](Cc2ccccc2)NC(=O)[C@H](Cc2c[nH]cn2)NC(=O)CNC(=O)[C@H]([C@@H](C)O)NC(=O)[C@@H](NC(=O)[C@H](Cc2ccccc2)NC(=O)[C@H](CCCNC(=N)N)NC(=O)[C@@H](N)CCC(N)=O)C(C)(C)SSC[C@@H](C(=O)N[C@@H](CC(N)=O)C(=O)NCC(=O)N2CCC[C@H]2C(N)=O)NC(=O)[C@@H]2CCCN2C(=O)[C@H](Cc2ccc(O)cc2)NC1=O
B13 came in with a dissociation constant Kd in assay [7] of 340 nM. In assay [8], this molecule displayed an IC50 of 3400 nM.

B14: Peptide No. 111 (peptide)
peptide: QRF[Pen]TGHF[Sar]GLYPCNGP-NH2
modifications: disulfide 4-14; N-terminus assumed
SMILES: CC(C)C[C@@H]1NC(=O)CNC(=O)CN(C)C(=O)[C@H](Cc2ccccc2)NC(=O)[C@H](Cc2c[nH]cn2)NC(=O)CNC(=O)[C@H]([C@@H](C)O)NC(=O)[C@@H](NC(=O)[C@H](Cc2ccccc2)NC(=O)[C@H](CCCNC(=N)N)NC(=O)[C@@H](N)CCC(N)=O)C(C)(C)SSC[C@@H](C(=O)N[C@@H](CC(N)=O)C(=O)NCC(=O)N2CCC[C@H]2C(N)=O)NC(=O)[C@@H]2CCCN2C(=O)[C@H](Cc2ccc(O)cc2)NC1=O
B14: in assay [5], the affinity, expressed as Kd, was 2000 nM.

B15: Peptide No. 280 (peptide)
peptide: RFCTGHFGGLYPC
modifications: Pen 3; Sar 9; NMeLeu 10; disulfide 3-13 within each chain; C-termini joined through the two amino groups of a branching Lys
notes: C-terminally linked dimer; drawing CHEM-US-00124
In [4], B15 registered an IC50 of 25 nM.

B16: Peptide No. 214 (peptide)
peptide: RFCTGHFXLYPC
modifications: not fully specified; Pen 3; X 8 = 3(S)-3-amino-2-oxo-1-pyrrolidine acetic acid in place of Gly-Gly; disulfide 3-12; C-terminal amide
In turn, B16 had a Kd in assay [1] of 280 nM. In assay [2], the IC50 came to 2300 nM. RF[Pen]TGHF[X1]LYPC-NH2 (disulfide 3-12) [Peptide No. 178] had a Kd in [1] of 160 nM. Also, the half-inhibitory concentration (IC50) in [2] worked out at 660 nM.
